Experimental data taken from patent US20200148777A1 (GAMAMABS PHARMA, published 2020).

T1: MISRII (AMHRII), immobilised on CM5 sensor chip (UniProt Q16671 18-144, limits assumed)
T1 construct: also called MSRII; immobilized receptor
T1 sequence (looked up): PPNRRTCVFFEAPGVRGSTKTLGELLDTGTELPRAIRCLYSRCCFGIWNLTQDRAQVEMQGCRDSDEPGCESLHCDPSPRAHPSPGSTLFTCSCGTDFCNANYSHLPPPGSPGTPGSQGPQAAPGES

T2: human Fcγ RII/CD32a (human, UniProt P12318 36-218)
T2 construct: Captured through anti-His antibody, so a His tag is implied but not described; also called hFcγRIIa
T2 sequence (looked up): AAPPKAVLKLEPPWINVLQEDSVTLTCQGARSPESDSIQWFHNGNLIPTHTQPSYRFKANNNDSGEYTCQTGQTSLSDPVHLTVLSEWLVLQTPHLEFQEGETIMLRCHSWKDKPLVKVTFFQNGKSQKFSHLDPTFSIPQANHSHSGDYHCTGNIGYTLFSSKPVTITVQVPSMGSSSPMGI

T3: human Fcγ RIIbc/CD32bc (human, UniProt P31994 46-217)
T3 construct: treated here as one molecule; also called hFcγRIIb
T3 sequence (looked up): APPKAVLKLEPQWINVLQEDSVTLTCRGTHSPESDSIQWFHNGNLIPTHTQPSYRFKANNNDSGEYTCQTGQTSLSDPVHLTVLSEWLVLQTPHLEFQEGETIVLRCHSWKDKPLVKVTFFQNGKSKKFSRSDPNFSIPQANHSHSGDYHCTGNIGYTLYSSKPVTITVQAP


What was measured:
[1] = molecular target: T1, MISRII (AMHRII), immobilised on CM5 …; assay: SPR, MISRII immobilised on CM5 chip, IgG injected, Langmuir 1:1 fit (affinity and avidity)
Method: (§1) SPR analyses were performed on a Bia3000 or T200 apparatus at 25° C. in HBS-EP (GE Healthcare). For affinity measurements, MISRII was covalently immobilized (1000 RU) on CM5 sensor chip using EDC/NHS activation according to the manufacturer's instructions (GE Healthcare). Different concentrations (0.5-128 nM) of 12G4 or 3C23K were injected on immobilized receptor during 180 seconds. After 400 seconds of dissociation in running buffer, the sensor chip was regenerated using Gly-HCl pH 1.7. The KD values, taking into account affinity and avidity, were calculated using a Langmuir 1:1 fitting model (BiaEvaluation3.2, GE Healthcare). Antibody-FcγR measurements were performed by single-cycle titration at 100 μl/min on FcγR (Sigma) captured on anti-His (R&D Systems) covalently immobilized at 4000-5000 RU level. The gamma receptor was injected at 20 nM during 60 seconds and five increasing antibody concentrations were injected (injection time=60 seconds). […] Kinetic parameters were evaluated from the sensorgrams using a heterogeneous Ligand or steady-state fitting models on the T200 evaluation software 3.0 (GE healthcare). […]
To better define the binding characteristics, clone 3C23K was reformatted as an IgG1 antibody, produced in YB2/0 cells and analyzed by surface plasmon resonance (SPR). […]

human Fcγ RIIIa/CD16a [2] = molecular target: T4, human Fcγ RIIIa/CD16a (human, UniProt P08637 17-208); assay: SPR (Biacore); description's upper bound for hypofucosylated 3C23K (YB2/0)
T4 construct: Captured through anti-His antibody, so a His tag is implied but not described; also called hFcγRIIIa

human Fcγ RIIIb/hCD16b [3] = molecular target: T5, human Fcγ RIIIb/hCD16b (human, UniProt O75015 17-200); assay: SPR, single-cycle titration, FcγR captured on anti-His; 3C23K from YB2/0, low fucose (33.0% fucosylated)
T5 construct: Captured through anti-His antibody, so a His tag is implied but not described; also called hFcγRIIIb
Method: as §1
(§2) The percentages of fucosylated, galactosylated and bisecting GlcNAc isoforms were 33.0%, 57.2% and 1.8% for 3C23K and 94.6%, 54.4% and 2.0%, for 3C23K-CHO, respectively. The effect of these glycosylation differences on the binding to FcγRs was analyzed by SPR.

human Fcγ RI/CD64 [4] = molecular target: T6, human Fcγ RI/CD64 (human, UniProt P12314 16-288); assay: SPR T200, single-cycle titration, receptor captured on anti-His; two state reaction model
T6 construct: Captured through anti-His antibody, so a His tag is implied but not described; also called hFcγRI
Method: (§3) Anti-histidine antibodies (R&D Systems) were immobilized on a T200 apparatus at 25° C. in HBS-EP at 10 μl/min flow rate on a CM5 sensor chip using EDC/NHS activation, according to the manufacturer's instructions (GE Healthcare). They were covalently immobilized at the 6900RU level on the flowcell Fc2 and a control reference surface (flowcell Fc1) was prepared using the same chemical treatment but without anti-His antibodies.
(§4) All kinetic measurements in Fc1 and Fc2 were performed by single-cycle titration on a T200 apparatus at 25° C. in HBS-EP at 100 μl/min. Each human gamma receptor (R&D Systems) was captured on immobilized anti-His antibodies at 20 nM during 60 s. Five increasing concentrations of antibody were injected (injection time=120 s). After a dissociation step of 600 s in running buffer, sensor surfaces were regenerated using 5 μl of glycine-HCl pH1.7. All the sensorgrams were corrected by subtracting the low signal from the control reference surface and buffer blank injections. Kinetic parameters were evaluated from the sensorgrams using a heterogeneous ligand or two states models from the T200 evaluation software.
(§5) The results of the measure of the affinity constants (Kd) of the hypo-fucosylated anti-AMHRII 3C23K antibody for the human Fc receptors are depicted in Table 4 below.

human Fcγ RIIIb/hCD16b [5] = molecular target: T5, human Fcγ RIIIb/hCD16b; assay: SPR T200, single-cycle titration, receptor captured on anti-His; heterogeneous ligand model (footnote *)
Method: as §3, §4, §5

human Fcγ RII/CD32a = molecular target: T2, human Fcγ RII/CD32a; assay: as above
Method: as §3, §4, §5

human Fcγ RIIIa/CD16a [6] = molecular target: T4, human Fcγ RIIIa/CD16a; assay: SPR, single-cycle titration, FcγR captured on anti-His; 3C23K from YB2/0, low fucose (33.0% fucosylated); lower end of the range 1-12 nM
Method: as §1, §2

human Fcγ RIIIa/CD16a [7] = molecular target: T4, human Fcγ RIIIa/CD16a; assay: SPR, single-cycle titration, FcγR captured on anti-His; 3C23K from YB2/0, low fucose (33.0% fucosylated); upper end of the range 1-12 nM
Method: as §1, §2

human Fcγ RIIbc/CD32bc = molecular target: T3, human Fcγ RIIbc/CD32bc; assay: SPR, FcγR captured on anti-His
Method: as §1, §2

human Fcγ RI/CD64 [8] = molecular target: T6, human Fcγ RI/CD64; assay: SPR, FcγR captured on anti-His
Method: as §1, §2

human Fcγ RIIIb/hCD16b [9] = molecular target: T5, human Fcγ RIIIb/hCD16b; assay: SPR, single-cycle titration, FcγR captured on anti-His; 3C23K-HEK293, expressed in HEK293 (comparator, not fucose-reduced)
Method: as §1, §2

human Fcγ RIIIa/CD16a [10] = molecular target: T4, human Fcγ RIIIa/CD16a; assay: SPR, single-cycle titration, FcγR captured on anti-His; 3C23K-HEK293, expressed in HEK293 (comparator, not fucose-reduced); lower end of the range 31-164 nM
Method: as §1, §2

human Fcγ RIIIa/CD16a [11] = molecular target: T4, human Fcγ RIIIa/CD16a; assay: SPR, single-cycle titration, FcγR captured on anti-His; 3C23K-HEK293, expressed in HEK293 (comparator, not fucose-reduced); upper end of the range 31-164 nM
Method: as §1, §2

T4 sequence (P08637 17-208 limits assumed): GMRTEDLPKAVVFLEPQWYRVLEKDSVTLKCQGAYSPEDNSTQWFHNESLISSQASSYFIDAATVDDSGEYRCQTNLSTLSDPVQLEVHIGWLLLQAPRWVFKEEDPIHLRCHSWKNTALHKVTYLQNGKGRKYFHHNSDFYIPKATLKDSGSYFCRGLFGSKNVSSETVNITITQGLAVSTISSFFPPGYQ
T5 sequence (O75015 17-200 limits assumed): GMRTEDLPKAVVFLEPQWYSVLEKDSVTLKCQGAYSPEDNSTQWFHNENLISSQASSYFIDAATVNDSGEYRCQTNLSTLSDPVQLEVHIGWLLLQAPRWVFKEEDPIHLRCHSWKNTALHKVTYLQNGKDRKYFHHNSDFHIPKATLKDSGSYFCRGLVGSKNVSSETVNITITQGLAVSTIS
T6 sequence (P12314 16-288 limits assumed): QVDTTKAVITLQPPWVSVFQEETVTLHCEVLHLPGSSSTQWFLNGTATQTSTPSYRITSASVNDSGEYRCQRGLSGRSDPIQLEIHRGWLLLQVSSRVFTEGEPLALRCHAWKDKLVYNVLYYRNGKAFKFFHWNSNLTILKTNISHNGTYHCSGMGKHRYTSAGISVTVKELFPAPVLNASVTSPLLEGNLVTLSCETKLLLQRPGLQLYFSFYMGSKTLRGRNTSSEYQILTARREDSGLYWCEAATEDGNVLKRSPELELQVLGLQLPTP

Kd [1] [nM] | Kd (human Fcγ RIIIa/CD16a [2]) [nM] | Kd (human Fcγ RIIIb/hCD16b [3]) [nM] | Kd (human Fcγ RI/CD64 [4]) [nM] | Kd (human Fcγ RIIIb/hCD16b [5]) [nM] | Kd (human Fcγ RII/CD32a) [nM] | Kd (human Fcγ RIIIa/CD16a [6]) [nM] | Kd (human Fcγ RIIIa/CD16a [7]) [nM] | binding result (human Fcγ RIIbc/CD32bc) | binding result (human Fcγ RI/CD64 [8]) | Kd (human Fcγ RIIIb/hCD16b [9]) [nM] | Kd (human Fcγ RIIIa/CD16a [10]) [nM] | Kd (human Fcγ RIIIa/CD16a [11]) [nM] | Binder
0.79 |  |  |  |  |  |  |  |  |  |  |  |  | murine anti-MISRII monoclonal antibody 12G4 (antibody, V domains shown) VH: QVQLQQSGPELVKPGASVRMSCKASGYTFTSYHIHWVKQRPGQGLEWIGWIYPGDDSTKYNEKFKGKTTLTADKSSSTAYMLLSSLTSEDSAIYFCTRGDRFAYWGQGTLVTVSA VL: QIVLTQSPAIMSASLGEGITLTCSASSSVRYIHWYQQKSGTSPKLLIYSTSNLASGVPSRFSGSGSGTFHSLTISSVEAEDAADYYCLQWSSYPWTFGGGTKLEIK
0.055 | < 50 | 86 | 0.2 to 3.3 | 49 | 120 | ≥ 1 | ≤ 12 |  |  |  |  |  | 3C23K humanised anti-AMHRII monoclonal antibody produced in YB2/0 cells (hypofucosylated, EMABling version) (antibody, human IgG1, kappa, N-glycan at ASN295 of the heavy chain, hypofucosylated (33.0% fucosylated isoforms for 3C23K from YB2/0), also called GM102; R18H2) heavy: not shown light: DIQMTQSPSTLSASVGDRVTITCRASSSVRYIAWYQQKPGKAPKLLTYPTSSLKSGVPSRFSGSGSGTEFTLTISSLQPDDFATYYCLQWSSYPWTFGGGTKVEIKRTVAAPSVFIFPPSDEQLKSGTASVVCLLNNFYPREAKVQWKVDNALQSGNSQESVTEQDSKDSTYSLSSTLTLSKADYEKHKVYACEVTHQGLSSPVTKSFNRGEC
 |  |  |  |  |  |  |  | binds | binds | 378 | ≥ 31 | ≤ 164 | 3C23K antibody expressed in HEK293 cells (antibody, human IgG1, kappa, It differs from m1 only in glycosylation; also called 3C23K-HEK293) heavy: not shown light: DIQMTQSPSTLSASVGDRVTITCRASSSVRYIAWYQQKPGKAPKLLTYPTSSLKSGVPSRFSGSGSGTEFTLTISSLQPDDFATYYCLQWSSYPWTFGGGTKVEIKRTVAAPSVFIFPPSDEQLKSGTASVVCLLNNFYPREAKVQWKVDNALQSGNSQESVTEQDSKDSTYSLSSTLTLSKADYEKHKVYACEVTHQGLSSPVTKSFNRGEC
